Source: patent publication US20250236667A1, “ANTIBODIES TO MUTANT CALRETICULIN AND USES THEREOF” (CENTRAL ADELAIDE LOCAL HEALTH NETWORK INC, priority 2021, published 2025)

Tests used:
[1] = system: mutant CALR neoepitope peptides; test: Binding of 4D7 to peptides covering regions of the immunizing neopeptide; parameters: species or system human
Protocol: B. Diluting concentrations of 4D7 to bound full-length 30 amino acid peptide compared to scrambled, C-terminal and N-terminal 11 amino acid peptides as shown in A (n=3). C. Scatchard analysis showing dissociation constant of 4D7 using I^125-labelled and unlabelled 4D7 bound to full-length 30 amino acid peptide (n=3). D. Histogram showing fluorescence intensity of 4D7 conjugated to phycoerythrin at a 4 μg/mL TF-1 TpoR CALR^del 61 vs TF-1 TpoR compared to unstained. E. TF-1 TpoR cells with endogenous wild type CALR cultured in the presence of TPO and 2, 10 or 20 μg/mL 4D7 anti-mutant CALR antibody or 20 μg/mL control IgG antibody (n=3). F. Proliferation curves of factor-independent TF-1 TpoR CALR^del61 cells cultured with 2, 10 or 20 μg/mL 4D7 or 20 μg/mL of control IgG antibody (n=3). G Proliferation curves of factor-independent TF-1 TpoR CALR^del52 cells cultured with 10 or 20 µg/mL 4D7 or 20 μg/mL of control IgG antibody (n=3). Data information: For panels E-G, bars represent standard error of the mean summarizing 3 independent experiments performed in triplicate, with a one-way ANOVA with Bonferroni correction used to determine statistical significance.

[2] = system: phospho-STAT1,3,5 and phospho-ERK in TF-1 TpoR CALR^del52 cells; test: Western blot of STAT/ERK signalling; assay type: cell-based, human; conditions: 10 or 20 μg/mL; 8 hours
Protocol: (§1) A. Cell extracts blotted for phospho-STAT5, total STAT5, phospho-ERK, total ERK and actin from TF-1 TpoR cells after incubation with 10 or 20 μg/mL 4D7 or IgG for 4 or 8 hours, in presence of TPO. The last line indicates TPO withdrawal. B. Similar experiment using TPO-independent TF-1 TpoR CALR^del61 cells. C. Similar experiment using TPO-independent TF-1 TpoR CALR^del52 cells at 8 hours. D. Fraction of apoptotic sub-Go population of TF-1 TpoR CALR^del61 cells after 48 hours of 4D7 or IgG treatment (n=3). E. Western blot showing caspase 3 cleavage occurring within 24 hours of TPO withdrawal in TPO dependent TF-1 TpoR cells. An increase in cleaved caspase 3 is observed after 48 hours of treatment with 20 μg/mL 4D7 in TF-1 TpoR CALR^del61 and TF-1 TpoR CALR^del52 cells. F. Western blot of TpoR immunoprecipitation under non-reducing conditions showing associated CALR 50 kDa monomers and 100 kDa dimers (arrowheads) present only in TF-1 TpoR CALR^del61 disrupted by 8 hour treatment with 20 μg/mL 4D7 but not PBS or 20 μg/mL IgG. CALR monomers & dimers are detectable by polyclonal anti-wild type CALR or anti-mutant CALR monoclonal antibodies. Arrowheads, detected mutant CALR protein: asterisk, non-specific bands. G. Proposed model for the mechanism of action of 4D7 on mutant CALR. In the active form, mutant CALR dimers bound to TpoR form a constitutively activate receptor complex which is disrupted by 4D7 with blockade in STAT and ERK signalling. (Adapted from Masubuchi et al. (2020), Rivera et al (2021)). […]
(§2) A. Cell extracts blotted for phospho-STAT1, total STAT1, phospho-STAT3, total STAT3 and actin from TF-1 TpoR cells after incubation with 10 or 20 μg/mL 4D7 or IgG for 4 or 8 hours as indicated. […] Cells were harvested and fixed and stained with propidium iodide and their DNA contents were analysed. […] E. Western blot showing specific co-immunoprecipitation of mutant CALR^del61 cells with TpoR anti-FLAG antibody under reducing conditions detected by total and mutant specific CALR antibodies. Arrowheads represent detected CALR protein. […]

[3] = system: phospho-STAT1,3,5 and phospho-ERK in TF-1 TpoR CALR^del61 cells; test: Western blot of STAT/ERK signalling; assay type: cell-based, human; conditions: 10 or 20 μg/mL; 4 and 8 hours
Protocol: as §1, §2

[4] = system: phospho-STAT1,3,5 and phospho-ERK in TF-1 cells expressing TpoR alone; test: Western blot of STAT/ERK signalling; assay type: cell-based, human; conditions: 10 or 20 μg/mL for 4 or 8 hours, in presence of TPO
Protocol: as §1, §2

B1: 4D7: rat monoclonal IgG2a antibody against the mutant CALR neoepitope; VH SEQ ID NO: 5, VL SEQ ID NO: 7 (antibody, listed as Rattus rattus, V domains shown)
VH: QVQLQQSGAELAKPGSSVKISCKASGYTFTNYDMSWIKQRPGQALEWIGAINPGNGVTDYNEKFRGKATLTVDKSSSTAFMQLSSLTPEDTAVYHCAREYRDNYGYFDYWGQGVMVTVSS
VL: DIVLTQTPVSLSVTLGDQASISCRSSQSLEYSDGYTYLDWFLQKPGQSPQLLIYEVSSRFSGVPDRFIGRGSGTDFTLKISRVEPEDLGVYYCFQATHDPFTFGSGTKLEIK
**Q.** With B1 as the molecule, how does the “binding to C-terminal portion of the immunogen” value ([1]; C-terminal 11 amino acid peptide) read?
**A.** no binding

**Q.** What about the “region of the immunizing neopeptide to which binding was mapped” value ([1]; peptides covering different regions of the neopeptide) of the same molecule?
**A.** 11 amino acids of the N-terminus

**Q.** And the “binding to scrambled peptide” value ([1]; scrambled peptide)?
**A.** no binding

**Q.** What about the “constitutive factor-independent phospho-STAT1,3,5 and phospho-ERK” value [2] of the same molecule?
**A.** blockade

**Q.** What about the “constitutive factor-independent phospho-STAT1,3,5 and phospho-ERK” value [3] of the same molecule?
**A.** blockade

**Q.** What about the inhibition of signalling [4] of the same molecule?
**A.** no inhibition of signalling
